Assay [1] concerns the target MtrR, endogenous in M. mazei (Methanosarcina mazei (endogenous in M. mazei)). The experiment in a line: western blot of the strep-tactin eluate.
Assay [2] addresses strep-tagged soluble domain of the MtrA subunit (M1 - S168), RED labeled (Methanosarcina mazei) (UniProt O59640). The experiment in a line: MST.
The target in assay [3] is MtrR-His6 constitutively expressed in M. mazei (pRS2087) (Methanosarcina mazei Gö1). The experiment in a line: IMAC purification and western blot.

Chain of UniProt O59640 (O59640 1-168): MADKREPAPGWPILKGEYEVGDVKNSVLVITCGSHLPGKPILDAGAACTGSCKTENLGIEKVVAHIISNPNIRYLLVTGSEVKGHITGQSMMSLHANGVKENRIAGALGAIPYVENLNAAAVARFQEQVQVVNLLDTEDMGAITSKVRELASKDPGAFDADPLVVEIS

The substance “MtrR, endogenous in M. mazei (natural protein)” returned a stoichiometry N in assay [1] of 2.

The substance “MtrR-His6 (small protein MtrR encoded by small ORF16, C-terminal his-tag), heterologously expressed in E. coli (natural protein)” displayed a Kd in assay [2] of 110 nM.

Substance “MtrR-His6 constitutively expressed in M. mazei (pRS2087) (natural protein)” returned a stoichiometry N in assay [3] of 2.

A word on the stoichiometry N: it is a count of units in the complex or per binding partner. The term Kd denotes the free concentration of one partner at which half of the binding sites on the other are occupied at equilibrium, for simple one-to-one binding. A higher Kd goes with a looser complex.
